Literature values as cited in US20210265014A1, “METHOD AND ELECTRONIC SYSTEM FOR PREDICTING AT LEAST ONE FITNESS VALUE OF A PROTEIN VIA AN EXTENDED NUMERICAL SEQUENCE, RELATED COMPUTER PROGRAM PRODUCT” (PEACCEL, priority 2018, published 2021).

Details: Aspergillus niger epoxide hydrolase; for ΔΔG values: enantioselectivity as ΔΔG‡=−RT ln(E); for E-value: enantioselectivity, glycidyl phenyl ether

B1: L215 F_A217N_R219S_L249Y_T317W_T318V_C350V: epoxide hydrolase mutant from Aspergillus niger (protein)
chain: NHKAFAKFPSSASISPNPFTVSIPDEQLDDLKTLVRLSKIAPPTYESLQADGRFGITSEWLTTMREKWLSEFDWRPFEARLNSFPQFTTEIEGLTIHFAALFSEREDAVPIALLHGWPGSFVEFYPILQLFREEYTPETLPFHLVVPSLPGYTFSSGPPLDKDFGLMDNARVVDQLMKDLGFGSGYIIQGGDIGSFVGRLLGVGFDACKAVHLNLCNMSAPPEGPSIESLSAAEKEGIARMEKFMTDGYAYAMEHSTRPSTIGHVLSSSPIALLAWIGEKYLQWVDKPLPSETILEMVSLYWLTESFPRAIHTYREWVPTASAPNGATMLQKELYIHKPFGFSFFPKDLVPVPRSWIATTGNLVFFRDHAEGGHFAALERPRELKTDLTAFVEQVWQK
  ΔΔG values: -2.73 kcal/mol
  E-value: 93.2

B2: WT: WT epoxide hydrolase sequence from Aspergillus niger (protein)
chain: NHKAFAKFPSSASISPNPFTVSIPDEQLDDLKTLVRLSKIAPPTYESLQADGRFGITSEWLTTMREKWLSEFDWRPFEARLNSFPQFTTEIEGLTIHFAALFSEREDAVPIALLHGWPGSFVEFYPILQLFREEYTPETLPFHLVVPSLPGYTFSSGPPLDKDFGLMDNARVVDQLMKDLGFGSGYIIQGGDIGSFVGRLLGVGFDACKAVHLNLCAMRAPPEGPSIESLSAAEKEGIARMEKFMTDGLAYAMEHSTRPSTIGHVLSSSPIALLAWIGEKYLQWVDKPLPSETILEMVSLYWLTESFPRAIHTYRETTPTASAPNGATMLQKELYIHKPFGFSFFPKDLCPVPRSWIATTGNLVFFRDHAEGGHFAALERPRELKTDLTAFVEQVWQK
modifications: Aspergillus niger
  ΔΔG values: -0.85 kcal/mol
  E-value: 4
